Test results taken from the supplement of paper PMC10567573.

B1: POMT2 (parent)
chain: VLRSRIRFIHLVTGCVLGSSGKVL

Variants of: B1
Assay: protein stability index of a GFP-peptide fusion (GPS, HEK-293T) (PSI 1-6); higher = more stable
Details: c terminus: a fixed tail appended
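Further: lentivirally expressed fusions sorted by FACS into six bins by GFP to DsRed ratio, PSI derived from sequencing read proportions per bin multiplied by bin number.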

Variant | protein stability index
VLRSRINFIHLVTGCVLGSSGKVL [R7N] | 2.44
VLRSRIVFIHLVTGCVLGSSGKVL [R7V] | 2.05
VLRSRIHFIHLVTGCVLGSSGKVL [R7H] | 3.62
VLRSRIAFIHLVTGCVLGSSGKVL [R7A] | 3.22
VLRSRIMFIHLVTGCVLGSSGKVL [R7M] | 3.48
VLRSRIEFIHLVTGCVLGSSGKVL [R7E] | 2.94
VLRSRIWFIHLVTGCVLGSSGKVL [R7W] | 2.28
VLRSRIYFIHLVTGCVLGSSGKVL [R7Y] | 2.4
VLRSRIDFIHLVTGCVLGSSGKVL [R7D] | 1.59
VLRSRITFIHLVTGCVLGSSGKVL [R7T] | 3
VLRSRIKFIHLVTGCVLGSSGKVL [R7K] | 3.58
VLRSRICFIHLVTGCVLGSSGKVL [R7C] | 2.94
VLRSRILFIHLVTGCVLGSSGKVL [R7L] | 2.52
VLRSRIGFIHLVTGCVLGSSGKVL [R7G] | 2.67
VLRSRIPFIHLVTGCVLGSSGKVL [R7P] | 2.44
VLYSRIRFIHLVTGCVLGSSGKVL [R3Y] | 2.82
VLTSRIRFIHLVTGCVLGSSGKVL [R3T] | 2.65
VLSSRIRFIHLVTGCVLGSSGKVL [R3S] | 3.27
VLVSRIRFIHLVTGCVLGSSGKVL [R3V] | 2.18
VLRSRIRFIHLLTGCVLGSSGKVL [V12L] | 2.13
VLRSRIRFIHLFTGCVLGSSGKVL [V12F] | 3.19
VLRSRIRFIHLRTGCVLGSSGKVL [V12R] | 2.65
VLRSRIRFIHLETGCVLGSSGKVL [V12E] | 4.33
VLRSRIRFIHLTTGCVLGSSGKVL [V12T] | 4.51

Variant | protein stability index
VLRSRIRFIHLWTGCVLGSSGKVL [V12W] | 1.94
VLRSRIRFIHLSTGCVLGSSGKVL [V12S] | 2.53
VLRSRIRFIHLMTGCVLGSSGKVL [V12M] | 3.2
VLRSRIRFIHLITGCVLGSSGKVL [V12I] | 2.81
VLRSRIRFIHLKTGCVLGSSGKVL [V12K] | 3.48
VLRSRIRFIHLCTGCVLGSSGKVL [V12C] | 2.2
VLRSRIRFIHLQTGCVLGSSGKVL [V12Q] | 1.05
VLRSRIRFIHLPTGCVLGSSGKVL [V12P] | 2.25
VLRSRIRFIHLNTGCVLGSSGKVL [V12N] | 3.83
VLRSRIRFIHLGTGCVLGSSGKVL [V12G] | 1.84
VLRSRIRFIHLHTGCVLGSSGKVL [V12H] | 2.88
VLRSRIRFIILVTGCVLGSSGKVL [H10I] | 3.35
VLRSRIRFIRLVTGCVLGSSGKVL [H10R] | 2.5
VLRSRIRFITLVTGCVLGSSGKVL [H10T] | 2.92
VLRSRIRFIPLVTGCVLGSSGKVL [H10P] | 3.05
VLRSRIRFIGLVTGCVLGSSGKVL [H10G] | 3.29
VLRSRIRFINLVTGCVLGSSGKVL [H10N] | 2.3
VLRSRIRFIALVTGCVLGSSGKVL [H10A] | 2.56
VLRSRIRFILLVTGCVLGSSGKVL [H10L] | 1.87
VLRSRIRFICLVTGCVLGSSGKVL [H10C] | 2.67
VLRSRIRFIMLVTGCVLGSSGKVL [H10M] | 1.99
VLRSRIRFIYLVTGCVLGSSGKVL [H10Y] | 2.84
VLRSRIRFIWLVTGCVLGSSGKVL [H10W] | 2.63
VLRSRIRFIFLVTGCVLGSSGKVL [H10F] | 3.38

Variant | protein stability index
VLRSRIRFIDLVTGCVLGSSGKVL [H10D] | 2.56
VLRSRIRFIKLVTGCVLGSSGKVL [H10K] | 1.58
VLRSRIRFIHLVQGCVLGSSGKVL [T13Q] | 2.86
VLRSRIRFIHLVPGCVLGSSGKVL [T13P] | 4.82
VLRSRIRFIHLVAGCVLGSSGKVL [T13A] | 2.01
VLRSRIRFIHLVKGCVLGSSGKVL [T13K] | 2.22
VLRSRIRFIHLVHGCVLGSSGKVL [T13H] | 2.02
VLRSRIRFIHLVVGCVLGSSGKVL [T13V] | 3.37
VLRSRIRFIHLVYGCVLGSSGKVL [T13Y] | 3.54
VLRSRIRFIHLVDGCVLGSSGKVL [T13D] | 2.35
VLRSRIRFIHLVEGCVLGSSGKVL [T13E] | 2.08
VLRSRIRFIHLVLGCVLGSSGKVL [T13L] | 3.22
VLRSRIRFIHLVGGCVLGSSGKVL [T13G] | 1.51
VLRSRIRFIHLVIGCVLGSSGKVL [T13I] | 2.31
VLRSRIRFIHLVFGCVLGSSGKVL [T13F] | 1.64
VLRQRIRFIHLVTGCVLGSSGKVL [S4Q] | 3.06
VLRFRIRFIHLVTGCVLGSSGKVL [S4F] | 2.29
VLRLRIRFIHLVTGCVLGSSGKVL [S4L] | 3.33
VLRVRIRFIHLVTGCVLGSSGKVL [S4V] | 2.38
VLRHRIRFIHLVTGCVLGSSGKVL [S4H] | 2.09
VLRNRIRFIHLVTGCVLGSSGKVL [S4N] | 4.14
VLRTRIRFIHLVTGCVLGSSGKVL [S4T] | 3.04
VLRRRIRFIHLVTGCVLGSSGKVL [S4R] | 2.66
VLRKRIRFIHLVTGCVLGSSGKVL [S4K] | 3.75

Variant | protein stability index
VLRYRIRFIHLVTGCVLGSSGKVL [S4Y] | 3.18
VLRIRIRFIHLVTGCVLGSSGKVL [S4I] | 2.53
VLRERIRFIHLVTGCVLGSSGKVL [S4E] | 2.36
VLRDRIRFIHLVTGCVLGSSGKVL [S4D] | 2.56
VLRSRIRFKHLVTGCVLGSSGKVL [I9K] | 2.98
VLRSRIRFFHLVTGCVLGSSGKVL [I9F] | 1.85
VLRSRIRFHHLVTGCVLGSSGKVL [I9H] | 4.48
VLRSRIRFGHLVTGCVLGSSGKVL [I9G] | 2.62
VLRSRIRFEHLVTGCVLGSSGKVL [I9E] | 2.34
VLRSRIRFDHLVTGCVLGSSGKVL [I9D] | 1.63
VLRSRIRFMHLVTGCVLGSSGKVL [I9M] | 2.73
VLRSRIRFYHLVTGCVLGSSGKVL [I9Y] | 3.49
VLRSRIRFCHLVTGCVLGSSGKVL [I9C] | 1.74
VLRSRIRFSHLVTGCVLGSSGKVL [I9S] | 2.78
VLRSRIRFWHLVTGCVLGSSGKVL [I9W] | 1.71
VLRSRIRFQHLVTGCVLGSSGKVL [I9Q] | 2.87
VLRSRIRFAHLVTGCVLGSSGKVL [I9A] | 4.43
VLRSRIRFNHLVTGCVLGSSGKVL [I9N] | 2.64
VLRSRIRFLHLVTGCVLGSSGKVL [I9L] | 2.5
VLRSRIRFPHLVTGCVLGSSGKVL [I9P] | 1.42
VLRSRIRFRHLVTGCVLGSSGKVL [I9R] | 1.39
VLRSRIRFVHLVTGCVLGSSGKVL [I9V] | 1.5
